Laboratory results: patent US20240279341A1 (Alector, published 2024)

T1: recombinant murine MerTK extracellular domain (mouse, UniProt Q60805 19-497)
T1 construct: also called moMerTK; mouse MerTK; not shown: PolyHis tag or TEVS/Thrombin/murine IgG2a Fc tag (a commercial human IgG1 Fc fusion is also mentioned); which form was t
T1 sequence: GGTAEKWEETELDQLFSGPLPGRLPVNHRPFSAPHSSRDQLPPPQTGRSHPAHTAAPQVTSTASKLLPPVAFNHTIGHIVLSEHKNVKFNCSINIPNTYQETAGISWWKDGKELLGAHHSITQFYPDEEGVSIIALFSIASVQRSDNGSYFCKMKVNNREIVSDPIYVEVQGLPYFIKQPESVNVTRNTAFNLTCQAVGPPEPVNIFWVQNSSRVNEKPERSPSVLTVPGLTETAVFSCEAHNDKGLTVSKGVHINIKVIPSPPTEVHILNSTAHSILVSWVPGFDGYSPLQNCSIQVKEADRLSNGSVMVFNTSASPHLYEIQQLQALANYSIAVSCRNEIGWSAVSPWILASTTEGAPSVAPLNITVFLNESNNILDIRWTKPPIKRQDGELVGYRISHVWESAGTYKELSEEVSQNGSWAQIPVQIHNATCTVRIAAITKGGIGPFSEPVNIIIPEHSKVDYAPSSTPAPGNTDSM


Assays:
[1] = biological target: T1, recombinant murine MerTK extracellular …; assay: SPR (Carterra LSA), antibody immobilized, MerTK ECD as analyte
Description: (§1) Binding kinetics of bispecific anti-MerTK:anti-PDL1 antibodies of the present disclosure to human, cyno, and murine MerTK were evaluated using a Carterra LSA instrument. […] A HC30 sensor chip (Carterra) was activated using the single channel flow cell with a 7-minute injection of a 1:1:1 mixture of 100 mM MES pH 5.5, 100 mM sulfo-NHS, 400 mM EDC (all reconstituted in MES pH 5.5; 100 μl of each mixed in vial immediately before running assay). After switching to the multi-channel array flow cell, the antibodies were injected over the activated chip in a 96-spot array for 15 minutes. A duplicate injection of the antibodies on a second block of the chip was spotted as before. The remaining unconjugated active groups on the chip were then blocked by injecting 1M Ethanolamine pH 8.5 (Carterra) for 7 minutes using the single channel flow cell.
(§2) After priming with running buffer (HBS-TE, Carterra) with 0.5 mg/ml BSA (Sigma), the immobilized anti-MerTK antibodies were tested for their ability to bind to several forms of recombinant MerTK extracellular domain, including that of human, cynomolgus, and mouse orthologs as described above. Estimates of affinity were generated by injecting each analyte over the entire antibody array using the single channel flow cell. […] Dissociation was followed for 300 seconds before regenerating after each injection with 2×30 seconds of 10 mM Glycine pH2.5. Three buffer blanks were run between each series (one species per series). After all concentrations of all three species of MerTK were injected, a duplicate set of injections was performed, so that each concentration for all three species was injected in widely spaced duplicates. Data were processed and analyzed using NextGenKIT high-throughput kinetics analysis software (Carterra).

[2] = biological target: T2, human PDL1 (human, UniProt Q9NZQ7 19-290); assay: flow cytometry on CHO-huPDL1 OE cells, Dylight650-conjugated antibody
T2 construct: whole, on cells; Also used as the target for the monovalent anti-PDL1 antibody on M2c-differentiated human macrophages (endogenous PDL1); also called huPDL1; programmed death-ligand 1
T2 sequence (Q9NZQ7 19-290): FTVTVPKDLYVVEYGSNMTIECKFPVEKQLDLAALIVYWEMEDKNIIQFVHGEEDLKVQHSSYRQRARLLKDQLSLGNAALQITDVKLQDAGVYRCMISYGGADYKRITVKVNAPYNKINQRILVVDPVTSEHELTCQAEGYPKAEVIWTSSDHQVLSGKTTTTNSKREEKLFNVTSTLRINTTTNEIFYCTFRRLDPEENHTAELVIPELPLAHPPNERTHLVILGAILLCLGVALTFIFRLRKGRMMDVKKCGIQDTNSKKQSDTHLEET
From the text: (§3) Human macrophages were differentiated from human monocytes for 7 days in the presence of human M-CSF, resulting in M2c-differentiated human macrophages. After 7 days, the differentiated human macrophages were harvested (by scraping), resuspended in PBS, and plated on 96-well plates for use. CHO cells overexpressing human MerTK (CHO-huMerTK OE), CHO cells overexpressing human PDL1 (CHO-huPDL1 OE), and M2c-differentiated human macrophages were stained with Dylight650-conjugated bispecific anti-MerTK:anti-PDL1 antibodies, or bivalent anti-MerTK antibodies for 30 min on ice. A range of antibody concentrations were used in these studies to obtain binding curves. All antibodies tested in these studies were IgG1 having Fc regions comprising LALAPS mutations. Cells were fixed and then acquired on a BD FACS Canto II cytometer. The mean fluorescence intensity (MFI) was calculated using FlowJo software and Kd value was calculated using Prism software.

[3] = biological target: T1, recombinant murine MerTK extracellular …; assay: SPR (Carterra LSA), antibody immobilized, MerTK ECD as analyte; estimate, fits not ideal for a 1:1 model
Description: as §1, §2

[4] = biological target: T2, human PDL1; assay: flow cytometry, Dylight650-conjugated antibody on CHO-huPDL1 OE cells, MFI
Description: To determine whether bispecific anti-MerTK:anti-PDL1 antibodies of the present disclosure bind to different cell types, the following experiments were performed. Cells used in these studies included CHO cells overexpressing human MerTK (CHO-human MerTK OE cells), CHO cells overexpressing human PDL1 (CHO-human PDL1 OE cells), and M2c-differentiated human macrophages.
as §3

Row | Binder | binding result [1] | binding result [2] | Kd [3] [nM] | binding result [4]
1 | monovalent anti-MerTK antibody MTK-16.2 (antibody, V domains shown) VH: QVQLVQSGSELKKPGASVKVSCKASGYTFTNHGMNWVRQAPGQGLEWMGWINTYTGEPTYADDFKGRFVFSLDTSVSTAYLQISSLKAEDTAVYYCARKGVTAARYFDYWGQGTLVTVSS VL: DIQMTQSPSSLSASVGDRVTITCRASQNVRTAVAWYQQKPGKAPKRLIYLASNRHTGVPSRFSGSGSGTEFTLTISNLQPEDFATYYCLQHWNYPLTFGGGTKLEIK | no binding | no binding |  | 
2 | monovalent anti-MerTK antibody MTK-33.11 (antibody, V domains shown) VH: QVQLVQSGAEVKKPGASVKVSCKASGYTFTSYWMHWVRQAPGQGLEWIGVIDPSDNYINYNQKFQGRVTMTRDTSTSTVYMELSSLRSEDTAVYYCAREAWTRGYFDYWGQGTLVTVSS VL: DIQMTQSPSSLSASVGDRVTITCQASRSVRNTVAWYQQKPGKAPKLLIYYASNRYTGVPSRFSGSGSGTDFTFTISSLQPEDIATYYCQQDYRSPFTFGQGTKLEIK |  | no binding | 40 | 
3 | bispecific anti-MerTK MTK-33.11:anti-PDL1 antibody (bispecific antibody, V domains shown) VH 1: QVQLVQSGAEVKKPGASVKVSCKASGYTFTSYWMHWVRQAPGQGLEWIGVIDPSDNYINYNQKFQGRVTMTRDTSTSTVYMELSSLRSEDTAVYYCAREAWTRGYFDYWGQGTLVTVSS VL 1: DIQMTQSPSSLSASVGDRVTITCQASRSVRNTVAWYQQKPGKAPKLLIYYASNRYTGVPSRFSGSGSGTDFTFTISSLQPEDIATYYCQQDYRSPFTFGQGTKLEIK VH 2: not shown VL 2: not shown |  |  | 40 | 
4 | bivalent anti-MerTK antibody MTK-33.11 (full IgG) (antibody, V domains shown) VH: QVQLVQSGAEVKKPGASVKVSCKASGYTFTSYWMHWVRQAPGQGLEWIGVIDPSDNYINYNQKFQGRVTMTRDTSTSTVYMELSSLRSEDTAVYYCAREAWTRGYFDYWGQGTLVTVSS VL: DIQMTQSPSSLSASVGDRVTITCQASRSVRNTVAWYQQKPGKAPKLLIYYASNRYTGVPSRFSGSGSGTDFTFTISSLQPEDIATYYCQQDYRSPFTFGQGTKLEIKR |  |  | 50 | no binding (tested: about 70 nM)
5 | bivalent anti-MerTK antibody MTK-16.2 (full IgG) (antibody, V domains shown) VH: QVQLVQSGSELKKPGASVKVSCKASGYTFTNHGMNWVRQAPGQGLEWMGWINTYTGEPTYADDFKGRFVFSLDTSVSTAYLQISSLKAEDTAVYYCARKGVTAARYFDYWGQGTLVTVSS VL: DIQMTQSPSSLSASVGDRVTITCRASQNVRTAVAWYQQKPGKAPKRLIYLASNRHTGVPSRFSGSGSGTEFTLTISNLQPEDFATYYCLQHWNYPLTFGGGTKLEIKR | no binding |  |  | no binding (tested: about 70 nM)
6 | bispecific anti-MerTK MTK-16.2:anti-PDL1 antibody (bispecific antibody, V domains shown) VH 1: QVQLVQSGSELKKPGASVKVSCKASGYTFTNHGMNWVRQAPGQGLEWMGWINTYTGEPTYADDFKGRFVFSLDTSVSTAYLQISSLKAEDTAVYYCARKGVTAARYFDYWGQGTLVTVSS VL 1: DIQMTQSPSSLSASVGDRVTITCRASQNVRTAVAWYQQKPGKAPKRLIYLASNRHTGVPSRFSGSGSGTEFTLTISNLQPEDFATYYCLQHWNYPLTFGGGTKLEIK VH 2: not shown VL 2: not shown | no binding |  |  | 
